The target in this assay is T1, DR4 ECD immunoadhesin (human, UniProt O00220 24-218).
T1 construct: also called DR4-IgG; DR4 ECD-IgG; not shown: CH1, hinge and Fc region of human immunoglobulin G1 heavy chain
The assay is described as follows: KinExA equilibrium, antibody in solution with DR4-IgG, DR4-IgG beads.

T1 sequence (O00220 other isoform, or with tags, fused parts or gaps): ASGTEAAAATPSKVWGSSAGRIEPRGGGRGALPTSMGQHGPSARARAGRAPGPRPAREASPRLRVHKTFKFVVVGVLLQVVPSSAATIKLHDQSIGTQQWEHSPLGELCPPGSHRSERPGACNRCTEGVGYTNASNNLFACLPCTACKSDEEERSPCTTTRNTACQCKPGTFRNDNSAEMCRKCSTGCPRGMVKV

B1: 4H6.17.8 anti-DR4 monoclonal antibody (murine) (antibody, V domains shown)
VH: QVQLKESGPGLVAPSQSLSITCTVSGFSLTSYGVHWVRQPPGKGLEWLGVIWAVGSTNYNSALMSRLSISKDNSKSQVFLKMNSLQTDDTAMYYCAREGEFDYYGSSLLSYHSMNFWGQGTSVTVS
VL: DIQMTQTTSSLSASLGDRVTISCRASQDISNYLNWYQRKPDGTVKLLIYYTSRLHSGVPSRFSGSGSGTDYSLTISNLEQEDIATYFCQQGNTLPFTFGSATKLELT
notes: Murine IgG1 from hybridoma ATCC HB-12455; only the variable domains apply here; the listing has Xaa at 20)
On to B1, for which the Kd was determined as 5 pM. In other words, the picomolar range.

(Values after patent EP2213302A2 (Genentech, Inc., dated 2010).)
